Results taken from the supplement of paper PMC9732359.
± gives the uncertainty stated by the source.

Assay: protein stability index of a GFP-peptide fusion (yeast GPS) (PSI 1-4); higher = more stable; sorted into four equal gates, so the index is relative within each strain
Procedure, shortened: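 Plasmids in a pooled yeast library fused tiled 17-residue yeast protein peptides downstream of GFP and also expressed Cherry. Mid-log cultures grown without leucine were sorted into four equal gates by GFP/Cherry fluorescence ratio. Each gate's plasmids were PCR-amplified and Illumina-sequenced, and reads were matched to strains by barcodes. The protein stability index is derived by multiplying each gate's read frequency by its gate number and summing the results.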

Sequence	protein stability index (doa10∆)	protein stability index (pdr5∆)	protein stability index (san1∆)	protein stability index (ubr1∆)
CDEHMGLSLAGLAPDAR [PRE5]	2.79 ± 0.18	3.08 ± 0.15	2.56 ± 0.12	2.76 ± 0.093
ATPIPEEVQQAQTEIKL [RPS5]	2.82 ± 0.11	2.89 ± 0.1	2.97 ± 0.096	3.05 ± 0.11
WMMNGALQILNSGIIPG [FAS2]	1.7 ± 0.092	1.86 ± 0.092	2.52 ± 0.15	1.46 ± 0.24
ELISYRNESLKNNSSIR [SRB8]	3.15 ± 0.068	3.05 ± 0.11	3.05 ± 0.08	3.05 ± 0.049
KITDKEDLLHYIEEKHP [POP4]	3.48 ± 0.1	3.3 ± 0.064	3.23 ± 0.057	3.24 ± 0.076
RDHKSYSQSPPRSPGRS [SMC4]	2.59 ± 0.092	2.98 ± 0.081	3.01 ± 0.17	2.87 ± 0.052
KVAPAPFGAKSTKSNKA [RPL8B]	2.6 ± 0.085	2.78 ± 0.073	2.74 ± 0.061	2.7 ± 0.043
KGPLLIERIGHLLSINY [PCI8]	2.35 ± 0.11	2.71 ± 0.15	–	3.11 ± 0.15
QNSANNNSDDEDVDDEE [IRR1]	3.28 ± 0.14	3.22 ± 0.15	3.62 ± 0.087	3.34 ± 0.1
DTFRAGAFDQLKQNAIR [SRP54]	2.82 ± 0.058	2.99 ± 0.056	3.09 ± 0.053	3.09 ± 0.076
LLNEYRPHQSRESLIML [MED7]	2.31 ± 0.074	2.15 ± 0.12	2.01 ± 0.12	1.98 ± 0.059
VEELPTFHDYDMVKLDI [RRP42]	2.51 ± 0.055	2.75 ± 0.063	2.87 ± 0.045	3.13 ± 0.033
AAAAPAPVAAAAPAAAA [FAS2]	–	1.62 ± 0.27	–	–
PSTDKNEKKTETNAKPF [YLR335W/NUP2]	3.32 ± 0.11	3.28 ± 0.094	3.34 ± 0.044	3.33 ± 0.096
LVSSYLNKSDLLDKYGK [YML103C/NUP188]	2.87 ± 0.091	3.13 ± 0.058	3.17 ± 0.053	2.89 ± 0.065
RKAYFTAPSSQRRVLLS [RPL26A]	2.44 ± 0.055	2.14 ± 0.056	2.54 ± 0.054	1.74 ± 0.047
STLHMLGYTHIAINFTV [RPP1]	1.5 ± 0.041	1.39 ± 0.037	1.45 ± 0.067	1.55 ± 0.041
CIFGDAFDVDRAKSCGV [RPL1A]	3.01 ± 0.073	2.75 ± 0.084	2.57 ± 0.11	2.59 ± 0.081
TDGDSILYYDVLFITPD [BRR2]	2.47 ± 0.068	2.5 ± 0.064	2.54 ± 0.068	2.94 ± 0.051
LDKQIEELVEAIVLPMK [RPT5]	2.97 ± 0.15	3.02 ± 0.15	3.45 ± 0.12	3.43 ± 0.15
VLRINKMLSCAGADRLQ [RPL10]	1.1 ± 0.092	1.28 ± 0.14	1.17 ± 0.21	1.11 ± 0.084
QRCKSNAISLQLKYDTS [YIL149C/MLP2]	1.78 ± 0.062	1.66 ± 0.054	1.86 ± 0.12	1.79 ± 0.047
NSNSNSGSLFGSNNAQT [YGL172W/NUP49]	2.6 ± 0.13	3.24 ± 0.085	2.9 ± 0.3	3.11 ± 0.11
YLTPPHECRLRDMTYSA [RET1]	3.22 ± 0.11	3.02 ± 0.12	2.76 ± 0.16	3.14 ± 0.15
TNILTKVDINADSAVNR [PRP28]	3.37 ± 0.062	3.4 ± 0.074	3.3 ± 0.055	3.31 ± 0.059
CDDESGDNEYITLRTSG [MCD1]	3.29 ± 0.16	3.29 ± 0.099	3.04 ± 0.072	3.47 ± 0.061
YAVAEQCPVKSAEDQLY [QCR2]	3.22 ± 0.13	–	3.15 ± 0.14	3.34 ± 0.21
NNRSVSMQTIAETIILS [SRB5]	2.02 ± 0.052	1.91 ± 0.068	1.56 ± 0.07	1.84 ± 0.031

Sequence	protein stability index (doa10∆)	protein stability index (pdr5∆)	protein stability index (san1∆)	protein stability index (ubr1∆)
AFDKHMNLVLNECIEER [SMB1]	2.06 ± 0.14	2.34 ± 0.19	2.68 ± 0.16	2.56 ± 0.051
SPAGKYKRQKSSLLYTY [ESC2]	1.24 ± 0.056	1.39 ± 0.067	1.17 ± 0.11	1.16 ± 0.06
SGNLPLNELSAKDKEIY [RPN13]	3.21 ± 0.074	3.32 ± 0.083	3.27 ± 0.044	3.19 ± 0.067
MLLGTDLCSLKPYVDRF [DIS3]	2.62 ± 0.06	2.68 ± 0.066	2.66 ± 0.067	2.92 ± 0.052
LLQEGGSLSGNSSSMEE [ESC2]	2.97 ± 0.11	2.67 ± 0.16	2.38 ± 0.13	2.64 ± 0.096
YRFYEYIYSQETKSWIN [MED1]	1.7 ± 0.065	1.93 ± 0.06	1.53 ± 0.11	1.82 ± 0.042
LAIADVETKLETKVDEL [DSN1]	3.04 ± 0.084	3.09 ± 0.074	3.19 ± 0.05	2.85 ± 0.087
GVYSDDELLSQLDLCKL [SRP68]	3.09 ± 0.063	3.21 ± 0.053	3.23 ± 0.043	3.15 ± 0.068
LTFMTCNSLHIPQDFEN [ESC2]	2.17 ± 0.045	2.46 ± 0.047	2.19 ± 0.089	2.66 ± 0.04
LCTLNDSKGSLYSVKFA [YGL100W/SEH1]	2.94 ± 0.13	2.84 ± 0.093	2.62 ± 0.058	2.49 ± 0.071
SGNEMPPQDAEGWFYKR [RPS19A]	3.21 ± 0.13	3.29 ± 0.24	3.25 ± 0.13	3.17 ± 0.12
PEIGNRKINLFYLYMLV [SWI1]	1.54 ± 0.1	1.32 ± 0.054	1.1 ± 0.22	2.22 ± 0.094
KNGKIYLKHNSIAEEIP [RET1]	2.97 ± 0.059	2.81 ± 0.05	2.61 ± 0.074	2.52 ± 0.037
FANNHFLNSNAVVVGTG [COR1]	1.41 ± 0.064	1.91 ± 0.061	2.33 ± 0.064	2.04 ± 0.056
RLGGDDLRIRIKLDIVV [SNF5]	1.35 ± 0.16	1.33 ± 0.097	1.54 ± 0.13	1.29 ± 0.099
FELFDNKTAHLSIPGKS [SNU114]	2.11 ± 0.04	2.11 ± 0.055	2.25 ± 0.058	2.1 ± 0.031
KLKYHDFLRKATAFNKT [RPL16A]	1.16 ± 0.13	1.24 ± 0.14	–	1.22 ± 0.15
KYLPHAILKLLENMPHP [PRP8]	2 ± 0.081	1.46 ± 0.056	1.67 ± 0.1	1.61 ± 0.042
VDNDNWVYKTKGDGMTS [RPN1]	3.12 ± 0.1	3.27 ± 0.065	3 ± 0.071	3.1 ± 0.11
GFQDRSLPHFPKNSKTP [RPO31]	2.7 ± 0.14	1.96 ± 0.1	1.56 ± 0.11	–
EYKTSSDSLGPDTSNEI [SRB2]	2.67 ± 0.23	2.47 ± 0.089	2.96 ± 0.2	2.55 ± 0.1
YGKLRNGMFCQVPSSLI [RRP4]	2.22 ± 0.066	2 ± 0.1	2.4 ± 0.09	2 ± 0.072
TIWCVCDSYLDADKELS [BRR2]	2.39 ± 0.059	2.44 ± 0.07	2.92 ± 0.057	2.75 ± 0.072
SGGWGVPRKFKHFIQGG [RPL7A]	–	3.23 ± 0.18	–	–
ERLHELKKLQSDIESAN [SMC1]	2.99 ± 0.076	3.23 ± 0.12	3.19 ± 0.061	3.2 ± 0.067
ILTIIEEYKKSLYAYCH [GRR1]	2.38 ± 0.28	1.33 ± 0.21	2.27 ± 0.26	3.38 ± 0.24
AFRRIMISEVPSVAAEY [RPC40]	1.35 ± 0.052	1.49 ± 0.056	1.51 ± 0.079	1.25 ± 0.049
